Test [1] has as its target CD22 (human, UniProt P20273 20-847). Kind of test: cell-based or functional assay. Details: unit not given beside the values.
Test [2] deals with T1, CD19 (human, UniProt P15391 20-556).
T1 sequence (looked up): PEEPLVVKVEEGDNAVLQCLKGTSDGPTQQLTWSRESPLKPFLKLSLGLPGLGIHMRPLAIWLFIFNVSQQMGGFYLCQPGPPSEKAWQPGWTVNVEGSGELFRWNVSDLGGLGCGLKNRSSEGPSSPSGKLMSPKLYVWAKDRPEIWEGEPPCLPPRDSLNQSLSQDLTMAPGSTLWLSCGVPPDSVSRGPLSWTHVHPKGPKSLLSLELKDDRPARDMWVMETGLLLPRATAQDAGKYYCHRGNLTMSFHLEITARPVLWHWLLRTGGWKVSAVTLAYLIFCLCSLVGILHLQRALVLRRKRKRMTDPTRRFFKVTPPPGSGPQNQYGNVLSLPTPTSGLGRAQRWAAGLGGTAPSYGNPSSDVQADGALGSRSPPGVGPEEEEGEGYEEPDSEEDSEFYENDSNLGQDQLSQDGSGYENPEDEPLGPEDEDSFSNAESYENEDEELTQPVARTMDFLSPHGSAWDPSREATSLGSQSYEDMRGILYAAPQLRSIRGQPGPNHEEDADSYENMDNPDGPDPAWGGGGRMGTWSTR
In words: cell-based or functional assay. Also on record: unit not given beside the values.

B1: ADCx22 (antibody, human IgG1, kappa, V domains shown)
VH: QVQLVQSGAEVKKPGSSVKVSCKASGYTFTSYWLHWVRQAPGQGLEWIGYINPRNDYTEYNQNFKDKATITADESTNTAYMELSSLRSEDTAFYFCARRDITTFYWGQGTLVTVSS
VL: DIQLTQSPSSLSASVGDRVTMSCKSSQSVLYSANHKNYLAWYQQKPGKAPKLLIYWASTRESGVPSRFSGSGSGTDFTFTISSLQPEDIATYYCHQYLSSWTFGQGTKVEIKR
modifications: PBD drug-linker on heavy chain interchain cysteine Cys220 (EU numbering) = position 219 of SEQ ID NO. 15
For B1, the “EC50, in vitro cytotoxicity (MTS cell viability) on Ramos cells, 4 days” value in test [1] is 0.0133.

B2: ADCx19 (antibody, V domains shown)
VH: QVQLVQPGAEVVKPGASVKLSCKTSGYTFTSNWMHWVKQAPGQGLEWIGEIDPSDSYTNYNQNFQGKAKLTVDKSTSTAYMEVSSLRSDDTAVYYCARGSNPYYYAMDYWGQGTSVTVS
VL: EIVLTQSPAIMSASPGERVTMTCSASSGVNYMHWYQQKPGTSPRRWIYDTSKLASGVPARFSGSGSGTSYSLTISSMEPEDAATYYCHQRGSYTFGGGTKLEIK
modifications: pyrrolobenzodiazepine (PBD) dimer warhead attached to the antibody via a cleavable linker; DAR 2+/-0.3; attachment residues not stated
In the case of B2, the “EC50, in vitro cytotoxicity (MTS cell viability) on Ramos cells, 4 days” value in test [2] was 0.000239.

For the origin of these results see US20200405879A1 (published 2020).
